In IntAct's records for PubMed 16286920:

B1: Galectin-9 (Mus musculus), O08573-2 (parent)
chain: MALFSAQSPYINPIIPFTGPIQGGLQEGLQVTLQGTTKSFAQRFVVNFQNSFNGNDIAFHFNPRFEEGGYVVCNTKQNGQWGPEERKMQMPFQKGMPFELCFLVQRSEFKVMVNKKFFVQYQHRVPYHLVDTIAVSGCLKLSFITFQTQNFRPAHQAPMAQTTIHMVHSTPGQMFSTPGIPPVVYPTPAYTIPFYTPIPNGLYPSKSIMISGNVLPDATRFHINLRCGGDIAFHLNPRFNENAVVRNTQINNSWGQEERSLLGRMPFSRGQSFSVWIICEGHCFKVAVNGQHMCEYYHRLKNLQDINTLEVAGDIQLTHVQT

Variants of: B1
Conditions: with havr2_mouse Havcr2, Q8VIM0
Chain of havr2_mouse Havcr2, Q8VIM0 (Q8VIM0 whole entry): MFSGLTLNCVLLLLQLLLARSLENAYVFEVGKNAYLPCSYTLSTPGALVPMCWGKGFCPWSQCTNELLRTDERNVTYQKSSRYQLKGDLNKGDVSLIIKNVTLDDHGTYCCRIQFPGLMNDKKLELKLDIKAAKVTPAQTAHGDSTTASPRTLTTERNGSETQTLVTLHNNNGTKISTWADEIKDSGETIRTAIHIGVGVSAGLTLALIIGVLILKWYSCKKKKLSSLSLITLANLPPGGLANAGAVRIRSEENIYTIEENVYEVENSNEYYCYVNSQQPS

| Variant | effect of a mutation on the interaction |
| --- | --- |
| R64A;R238A | disrupting interaction strength |
| R64A | decreasing interaction strength |
| R238A | decreasing interaction strength |
